Source: patent US20240262905A1 (PANDION OPERATIONS, published 2024)
One block for each binder: values may come before it.

Legend:
Insulin = target: T1, Insulin; assay: ELISA, plate coated with insulin 5 ug/mL, test article at 100 nM, anti-human Fc-HRP detection
T1 construct: Plate coat in the polyreactivity ELISA

human DSG-3 [1] = target: T2, human DSG-3 (human, UniProt P32926 50-615, limits assumed); assay: bridging ELISA, plate coated with hDSG-3, test article at 1 nM, then his-tagged hCD25 1 ug/mL, anti-His-HRP detection
T2 construct: Soluble analyte (Octet) and plate coat (ELISA); also called hDSG-3
T2 sequence (looked up): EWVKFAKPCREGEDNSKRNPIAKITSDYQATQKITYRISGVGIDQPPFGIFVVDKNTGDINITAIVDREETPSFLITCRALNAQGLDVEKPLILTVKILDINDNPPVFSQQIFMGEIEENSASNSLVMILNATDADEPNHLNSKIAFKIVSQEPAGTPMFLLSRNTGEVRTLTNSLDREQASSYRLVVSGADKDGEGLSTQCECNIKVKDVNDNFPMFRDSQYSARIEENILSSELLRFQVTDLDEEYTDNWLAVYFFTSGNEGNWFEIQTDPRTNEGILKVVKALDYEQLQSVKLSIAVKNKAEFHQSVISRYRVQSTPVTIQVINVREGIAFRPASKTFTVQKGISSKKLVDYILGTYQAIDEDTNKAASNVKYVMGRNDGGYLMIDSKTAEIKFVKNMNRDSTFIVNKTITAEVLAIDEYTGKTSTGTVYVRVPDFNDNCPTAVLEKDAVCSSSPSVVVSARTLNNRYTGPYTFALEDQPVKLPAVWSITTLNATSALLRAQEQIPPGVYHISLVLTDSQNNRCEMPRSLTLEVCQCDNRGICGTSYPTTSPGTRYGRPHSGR

human DSG-3 [2] = target: T2, human DSG-3; assay: bridging ELISA, plate coated with hDSG-3, test article at 10 nM, then his-tagged hCD25 1 ug/mL, anti-His-HRP detection
human DSG-3 [3] = target: T2, human DSG-3; assay: bridging ELISA, plate coated with hDSG-3, test article at 100 nM, then his-tagged hCD25 1 ug/mL, anti-His-HRP detection
human PD-1 = target: T3, human PD-1 (human, UniProt Q15116 25-167); assay: BLI (Octet), test article captured on anti-human Fc biosensors, human PD-1 as analyte, 1:1 global fit
T3 construct: Soluble analyte in the Octet assay
T3 sequence (Q15116 25-167 limits assumed): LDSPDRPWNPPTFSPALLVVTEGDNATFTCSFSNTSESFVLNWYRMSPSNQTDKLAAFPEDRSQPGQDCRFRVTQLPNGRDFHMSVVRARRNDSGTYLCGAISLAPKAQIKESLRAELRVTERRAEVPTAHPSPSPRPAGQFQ

[4] = target: PD-1 on PD-1 reporter Jurkat cells (human, UniProt Q15116 25-288); assay: cell-based or functional assay
Chain of PD-1 on PD-1 reporter Jurkat cells (Q15116 25-288): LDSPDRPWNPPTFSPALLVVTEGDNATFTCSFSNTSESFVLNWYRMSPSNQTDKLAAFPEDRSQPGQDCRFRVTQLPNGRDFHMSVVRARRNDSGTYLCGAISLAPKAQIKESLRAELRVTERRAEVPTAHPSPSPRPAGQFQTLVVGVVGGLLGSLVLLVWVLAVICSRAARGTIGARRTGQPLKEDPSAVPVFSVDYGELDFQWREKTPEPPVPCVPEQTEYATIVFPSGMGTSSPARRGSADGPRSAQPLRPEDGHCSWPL

human CD25 = target: T4, human CD25 (human, UniProt P01589 22-213, limits assumed); assay: BLI (Octet), test article captured on anti-human Fc biosensors, 1:1 global fit (method text names desmogleins as analyte; result told for human CD25)
T4 construct: construct not described
T4 sequence (looked up): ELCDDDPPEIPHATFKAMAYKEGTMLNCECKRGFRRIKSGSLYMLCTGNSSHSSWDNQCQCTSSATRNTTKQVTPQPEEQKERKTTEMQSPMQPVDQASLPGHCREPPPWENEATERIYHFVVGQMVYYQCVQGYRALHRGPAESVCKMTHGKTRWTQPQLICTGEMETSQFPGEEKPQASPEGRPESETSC

- Insulin polyreactivity score (Insulin): 3.1
- absorbance (OD450 nm) (human DSG-3 [1]): 0.194
- absorbance (OD450 nm) (human DSG-3 [2]): 0.545
- absorbance (OD450 nm) (human DSG-3 [3]): 1.16
B1: IL2DSGAB4 (other)
heavy: QVQLVQSGGGVVQSGRSLRLSCAASGFTFSDYAMHWVRQAPGKGLEWVAVISHGGTKKYTGDSVKGRFIISRDNSKNTVFLQMNSLRVEDTAVYYCARDRVEGYVWGGTFDHWGQGTPVTVSSASTKGPSVFPLAPSSKSTSGGTAALGCLVKDYFPEPVTVSWNSGALTSGVHTFPAVLQSSGLYSLSSVVTVPSSSLGTQTYICNVNHKPSNTKVDKKVEPKSCDKTHTCPPCPAPEAAGAPSVFLFPPKPKDTLMISRTPEVTCVVVDVSHEDPEVKFNWYVDGVEVHNAKTKPREEQYNSTYRVVSVLTVLHQDWLNGKEYKCKVSNKALPAPIEKTISKAKGQPREPQVYTLPPSREEMTKNQVSLTCLVKGFYPSDIAVEWESNGQPENNYKTTPPVLDSDGSFFLYSKLTVDKSRWQQGNVFSCSVMHEALHNHYTQKSLSLSPGGGGGSAPTSSSTKKTQLQLEHLLLDLQMILNGINNYKNPKLTRMLTFKFYMPKKATELKHLQCLEEELKPLEEALNLAPSKNFHLRPRDLISDINVIVLELKGSETTFMCEYADETATIVEFINRWITFSQSIISTLT
light: ELVLTQPPSVPVAPGQTANISCGGNNIGRQTVHWYQQKPGQAPVLVVFDDSDRPAGIPERFSGSNSGNTATLTISRVEAGDEADYYCQVWDSSSDHVVFGGGTQLTVLGQPKAAPSVTLFPPSSEELQANKATLVCLISDFYPGAVTVAWKADSSPVKAGVETTTPSKQSNNKYAASSYLSLTPEQWKSHRSYSCQVTHEGSTVEKTVAPTECS
notes: SD4 anti-desmoglein human IgG1 with the IL-2 mutein fused to the C-terminus of the heavy chain; copies: 2 + 2

- Kd (human PD-1): 243 nM
B2: PD1DSGAB4 (bispecific antibody, human IgG1, kappa)
heavy: QVQLVQSGAEVKKPGASVKVSCKASGYSFTTYYMHWVRQAPGQGLEWMGIINPSGGSTSYAQKFQGRVTMTRDTSTSTVYMELSSLRSEDTAVYYCASGWVYWGQGTLVTVSSASTKGPSVFPLAPSSKSTSGGTAALGCLVKDYFPEPVTVSWNSGALTSGVHTFPAVLQSSGLYSLSSVVTVPSSSLGTQTYICNVNHKPSNTKVDKKVEPKSCDKTHTCPPCPAPEAAGAPSVFLFPPKPKDTLMISRTPEVTCVVVDVSHEDPEVKFNWYVDGVEVHNAKTKPREEQYNSTYRVVSVLTVLHQDWLNGKEYKCKVSNKALPAPIEKTISKAKGQPREPQVYTLPPSREEMTKNQVSLTCLVKGFYPSDIAVEWESNGQPENNYKTTPPVLDSDGSFFLYSKLTVDKSRWQQGNVFSCSVMHEALHNHYTQKSLSLSPGGGGGSGGGGSGGGGSELVLTQPPSVPVAPGQTANISCGGNNIGRQTVHWYQQKPGQAPVLVVFDDSDRPAGIPERFSGSNSGNTATLTISRVEAGDEADYYCQVWDSSSDHVVFGGGTQLTVLGGGGSGGGGSGGGGSGGGGSQVQLVQSGGGVVQSGRSLRLSCAASGFTFSDYAMHWVRQAPGKGLEWVAVISHGGTKKYTGDSVKGRFIISRDNSKNTVFLQMNSLRVEDTAVYYCARDRVEGYVWGGTFDHWGQGTPVTVSS
light: not shown
notes: Anti-PD-1 agonist human IgG1 with an SD4 anti-desmoglein scFv at the C-terminus of each heavy chain; copies: 2 + 2

- SHP-2 recruitment in PD-1 reporter Jurkat cells (test article on anti-human IgG coated plate), EC50 at 2 hours [4]: 107 nM
- SHP-2 recruitment in PD-1 reporter Jurkat cells (test article on anti-human IgG coated plate), EC50 at 24 hours [4]: 11.2 nM
- Insulin polyreactivity score (Insulin): 1.3
- Kd (human PD-1): 123 nM
B3: PD1DSGAB1 (bispecific antibody)
heavy: QVQLVQSGAEVKKPGASVKVSCKASGYSFTTYYMHWVRQAPGQGLEWMGIINPSGGSTSYAQKFQGRVTMTRDTSTSTVYMELSSLRSEDTAVYYCASGWVYWGQGTLVTVSSASTKGPSVFPLAPSSKSTSGGTAALGCLVKDYFPEPVTVSWNSGALTSGVHTFPAVLQSSGLYSLSSVVTVPSSSLGTQTYICNVNHKPSNTKVDKKVEPKSCDKTHTCPPCPAPEAAGAPSVFLFPPKPKDTLMISRTPEVTCVVVDVSHEDPEVKFNWYVDGVEVHNAKTKPREEQYNSTYRVVSVLTVLHQDWLNGKEYKCKVSNKALPAPIEKTISKAKGQPREPQVYTLPPSREEMTKNQVSLTCLVKGFYPSDIAVEWESNGQPENNYKTTPPVLDSDGSFFLYSKLTVDKSRWQQGNVFSCSVMHEALHNHYTQKSLSLSPGGGGGSGGGGSGGGGSQSVLTQPPSVSGTPGQRVTISCSGSSSHIGSNYVYWYQQLPGTAPKILIYSNDQRPAGVPDRFSASKSGTSASLAISGLRSEDEADYYCAAWDDGQGGVFGGGTKLTVLGGGGSGGGGSGGGGSGGGGSQVQLQESGPGPVKPSGTLSLTCGVSGGSISSNHWWTWVRQPPGKGLEWIGEIYHNGSTFLNPSLKSRVTISVDKSNNQFSLKLTSVTAADTAVYYCARGWHRTGFRGYPSHWYFDLWGRGTLVSVSS
light: not shown
notes: Anti-PD-1 agonist human IgG1 with an SD1 anti-desmoglein scFv at the C-terminus of each heavy chain (PD-1 ML-N format)

- absorbance (OD450 nm) (human DSG-3 [1]): 0.36
- absorbance (OD450 nm) (human DSG-3 [2]): 0.55
- absorbance (OD450 nm) (human DSG-3 [3]): 1.2
- Kd (human CD25): 3.5 nM
B4: IL2DSGAB7 (other)
heavy: EVQLVESGGGLVQPGRSLRLSCAASGFTFDDYAMHWVRQAPGKGLEWVSGISWNSGSIDYADSVKGRFTISRDNAKNSLYLQMNSLRVEDTALYYCAKDGSRVFGVGGGFDFWGQGTMVTVSSASTKGPSVFPLAPSSKSTSGGTAALGCLVKDYFPEPVTVSWNSGALTSGVHTFPAVLQSSGLYSLSSVVTVPSSSLGTQTYICNVNHKPSNTKVDKKVEPKSCDKTHTCPPCPAPEAAGAPSVFLFPPKPKDTLMISRTPEVTCVVVDVSHEDPEVKFNWYVDGVEVHNAKTKPREEQYNSTYRVVSVLTVLHQDWLNGKEYKCKVSNKALPAPIEKTISKAKGQPREPQVYTLPPSREEMTKNQVSLTCLVKGFYPSDIAVEWESNGQPENNYKTTPPVLDSDGSFFLYSKLTVDKSRWQQGNVFSCSVMHEALHNHYTQKSLSLSPG
light: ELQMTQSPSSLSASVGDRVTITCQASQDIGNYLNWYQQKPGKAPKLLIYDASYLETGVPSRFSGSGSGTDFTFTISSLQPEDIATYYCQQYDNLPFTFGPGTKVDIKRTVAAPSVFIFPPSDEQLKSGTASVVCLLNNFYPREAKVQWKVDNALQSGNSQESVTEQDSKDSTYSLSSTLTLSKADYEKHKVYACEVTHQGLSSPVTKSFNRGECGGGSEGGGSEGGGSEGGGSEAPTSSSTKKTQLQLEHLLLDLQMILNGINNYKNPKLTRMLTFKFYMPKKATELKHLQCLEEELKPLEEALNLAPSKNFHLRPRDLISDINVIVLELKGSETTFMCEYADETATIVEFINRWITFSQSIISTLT
notes: also called TL2DSGAB7

- Insulin polyreactivity score (Insulin): 1.7
- Kd (human PD-1): 328 nM
B5: PD1DSGAB3 (bispecific antibody, human IgG1, kappa)
heavy: QVQLVQSGAEVKKPGASVKVSCKASGYSFTTYYMHWVRQAPGQGLEWMGIINPSGGSTSYAQKFQGRVTMTRDTSTSTVYMELSSLRSEDTAVYYCASGWVYWGQGTLVTVSSASTKGPSVFPLAPSSKSTSGGTAALGCLVKDYFPEPVTVSWNSGALTSGVHTFPAVLQSSGLYSLSSVVTVPSSSLGTQTYICNVNHKPSNTKVDKKVEPKSCDKTHTCPPCPAPEAAGAPSVFLFPPKPKDTLMISRTPEVTCVVVDVSHEDPEVKFNWYVDGVEVHNAKTKPREEQYNSTYRVVSVLTVLHQDWLNGKEYKCKVSNKALPAPIEKTISKAKGQPREPQVYTLPPSREEMTKNQVSLTCLVKGFYPSDIAVEWESNGQPENNYKTTPPVLDSDGSFFLYSKLTVDKSRWQQGNVFSCSVMHEALHNHYTQKSLSLSPGGGGGSGGGGSGGGGSELQMTQSPSSLSASVGDRVTITCQASQDIGNYLNWYQQKPGKAPKLLIYDASYLETGVPSRFSGSGSGTDFTFTISSLQPEDIATYYCQQYDNLPFTFGPGTKVDIKGGGGSGGGGSGGGGSGGGGSEVQLVESGGGLVQPGRSLRLSCAASGFTFDDYAMHWVRQAPGKGLEWVSGISWNSGSIDYADSVKGRFTISRDNAKNSLYLQMNSLRVEDTALYYCAKDGSRVFGVGGGFDFWGQGTMVTVSS
light: not shown
notes: Anti-PD-1 agonist human IgG1 with an SD3 anti-desmoglein scFv at the C-terminus of each heavy chain; copies: 2 + 2

- Insulin polyreactivity score (Insulin): 2.9
- absorbance (OD450 nm) (human DSG-3 [1]): 0.508
- absorbance (OD450 nm) (human DSG-3 [2]): 0.628
- absorbance (OD450 nm) (human DSG-3 [3]): 0.756
B6: IL2DSGAB3 (other)
heavy: EVQLVESGGGLVQPGRSLRLSCAASGFTFDDYAMHWVRQAPGKGLEWVSGISWNSGSIDYADSVKGRFTISRDNAKNSLYLQMNSLRVEDTALYYCAKDGSRVFGVGGGFDFWGQGTMVTVSSASTKGPSVFPLAPSSKSTSGGTAALGCLVKDYFPEPVTVSWNSGALTSGVHTFPAVLQSSGLYSLSSVVTVPSSSLGTQTYICNVNHKPSNTKVDKKVEPKSCDKTHTCPPCPAPEAAGAPSVFLFPPKPKDTLMISRTPEVTCVVVDVSHEDPEVKFNWYVDGVEVHNAKTKPREEQYNSTYRVVSVLTVLHQDWLNGKEYKCKVSNKALPAPIEKTISKAKGQPREPQVYTLPPSREEMTKNQVSLTCLVKGFYPSDIAVEWESNGQPENNYKTTPPVLDSDGSFFLYSKLTVDKSRWQQGNVFSCSVMHEALHNHYTQKSLSLSPGGGGGSAPTSSSTKKTQLQLEHLLLDLQMILNGINNYKNPKLTRMLTFKFYMPKKATELKHLQCLEEELKPLEEALNLAPSKNFHLRPRDLISDINVIVLELKGSETTFMCEYADETATIVEFINRWITFSQSIISTLT
light: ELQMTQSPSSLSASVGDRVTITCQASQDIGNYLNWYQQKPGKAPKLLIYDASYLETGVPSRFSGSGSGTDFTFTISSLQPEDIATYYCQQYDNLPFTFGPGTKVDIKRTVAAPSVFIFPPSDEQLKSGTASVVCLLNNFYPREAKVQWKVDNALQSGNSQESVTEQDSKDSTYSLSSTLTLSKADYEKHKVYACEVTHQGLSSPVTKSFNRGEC
notes: SD3 anti-desmoglein human IgG1 with the IL-2 mutein fused to the C-terminus of the heavy chain; copies: 2 + 2
